Results taken from paper PMC8469703, “Arginine Methylation of hnRNPK Inhibits the DDX3-hnRNPK Interaction to Play an Anti-Apoptosis Role in Osteosarcoma Cells” (International Journal of Molecular Sciences, 2021).

Tests used:
[1] = target: T1, GST-tagged full-length DDX3 (GST-DDX3^1–662) (human, UniProt O00571 1-662); assay: pull-down; bead-bound GST-DDX3 variants incubated with recombinant hnRNPK or the KI segment; binding buffer PBS with 0.5% NP-40, 0.25% sodium deoxycholate, 5% glycerol, protease inhibitors; 4 °C, 1 h; three washes; SDS-PAGE; conditions: both partners purified
T1 construct: Vector pGEX-5X-1
T1 sequence (O00571 whole entry): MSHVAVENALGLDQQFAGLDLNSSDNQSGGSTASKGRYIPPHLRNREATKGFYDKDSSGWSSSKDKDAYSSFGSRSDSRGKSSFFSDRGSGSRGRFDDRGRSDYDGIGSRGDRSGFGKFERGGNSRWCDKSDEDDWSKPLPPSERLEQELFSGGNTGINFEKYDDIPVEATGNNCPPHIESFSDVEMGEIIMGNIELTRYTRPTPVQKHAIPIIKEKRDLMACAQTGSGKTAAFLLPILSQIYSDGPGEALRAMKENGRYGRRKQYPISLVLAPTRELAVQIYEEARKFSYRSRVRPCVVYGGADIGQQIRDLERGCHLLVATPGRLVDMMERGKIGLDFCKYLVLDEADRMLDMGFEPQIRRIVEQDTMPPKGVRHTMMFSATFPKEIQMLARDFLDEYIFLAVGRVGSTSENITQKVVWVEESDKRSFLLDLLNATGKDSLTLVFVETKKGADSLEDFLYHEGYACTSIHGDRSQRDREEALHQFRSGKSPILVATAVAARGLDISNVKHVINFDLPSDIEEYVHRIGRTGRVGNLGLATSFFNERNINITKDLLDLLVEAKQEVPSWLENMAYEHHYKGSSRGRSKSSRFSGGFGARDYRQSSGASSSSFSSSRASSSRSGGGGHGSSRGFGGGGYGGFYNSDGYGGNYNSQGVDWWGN

[2] = target: T2, GST-tagged C-terminal region of DDX3 (GST-DDX3^535–662) (human, UniProt O00571 535-662); assay: as above; conditions: both partners purified
T2 construct: Vector pGEX-5X-1; also called DDX3 C-terminus
T2 sequence (O00571 535-662): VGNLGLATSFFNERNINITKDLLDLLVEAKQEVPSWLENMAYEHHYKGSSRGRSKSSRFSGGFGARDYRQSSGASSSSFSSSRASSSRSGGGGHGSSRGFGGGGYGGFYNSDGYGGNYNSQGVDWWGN

- binding result [1]: binds
- binding result [2]: binds
B1: His6-tagged Trx-KI (K-interactive region of hnRNPK, amino acids 240–336) (domain or fragment, UniProt P61978 240-336, looked up)
chain: TMMFDDRRGRPVGFPMRGRGGFDRMPPGRGGRPMPPSRRDYDDMSPRRGPPPPPPGRGGRGGSRARNLPLPPPPPPRGGDLMAYDRRGRPGDRYDGM
notes: also called his-KI; KI segment; source: E. coli BL21 DE3 pLysS, purified (Ni-NTA agarose, dialysis)
